What was measured:
[1] = tested on: peptide probe with CM HQSRSGPWGAL (SEQ ID NO: 649)
[2] = tested on: peptide probe with CM HQARSGPWGLL (SEQ ID NO: 643)
[3] = tested on: (MCA)-His-Gln-Ser-Arg-Ser-Ala-Ile-Ala-Leu-Gly-Ser-Lys (DNP)-D-Arg (SEQ ID NO: 655)
[4] = tested on: peptide probe with CM HQSRSGPWALL (SEQ ID NO: 648)
[5] = tested on: peptide probe with CM HQSRSGPWGLA (SEQ ID NO: 650)
[6] = tested on: (MCA)-His-Gln-Ser-Arg-Ser-Pro-Trp-Gly-Gly-Ser-Lys (DNP)-D-Arg (SEQ ID NO: 661)
[7] = tested on: peptide probe with CM HQSRSAPWGLL (SEQ ID NO: 646)
[8] = tested on: (MCA)-His-Gln-Ser-Arg-Ser-Ala-Ile-Ala-Leu-X1-Gly-Lys (DNP)-D-Arg (SEQ ID NO: 654) where X1 is Y
[9] = tested on: peptide probe with CM HQSRAGPWGLL (SEQ ID NO: 645)
[10] = tested on: (MCA)-Ser-Pro-Trp-Gly-Leu-His-Gln-Ser-Lys-Ser-Lys (DNP)-D-Arg (SEQ ID NO: 664)
[11] = tested on: peptide probe with CM HASRSGPWGLL (SEQ ID NO: 642)
[12] = tested on: (MCA)-His-Gln-Ser-Arg-Ser-Pro-Trp-Gly-Leu-Gly-Lys (DNP)-D-Arg (SEQ ID NO: 665)
[13] = tested on: peptide probe with CM AQSRSGPWGLL (SEQ ID NO: 641)
[14] = tested on: (MCA)-His-Gln-Ser-Arg-Ser-Ala-Ile-Ala-Leu-X1-X2-Lys (DNP)-D-Arg (SEQ ID NO: 653) where X1 is Y and X2 is A
[15] = tested on: peptide probe with CM HQSRSGAWGLL (SEQ ID NO: 647)
[16] = tested on: (MCA)-His-Gln-Ser-Arg-Pro-Trp-Gly-Leu-Gly-Ser-Lys (DNP)-D-Arg (SEQ ID NO: 660)
[17] = tested on: peptide probe with CM HQSASGPWGLL (SEQ ID NO: 644)
[18] = tested on: (MCA)-Ser-Pro-Trp-Gly-Leu-His-Gln-Ser-Arg-Ser-Lys (DNP)-D-Arg (SEQ ID NO: 657)
[19] = tested on: peptide probe with CM HQSRSGPAGLL (SEQ ID NO: 639)
[20] = tested on: (MCA)-Ser-Pro-Trp-Gly-Leu-His-Gln-Ser-Arg-Gly-Lys (DNP)-D-Arg (SEQ ID NO: 663)
[21] = tested on: D-Arg-Lys (DNP)-Ala-Ile-Ala-Leu-His-Gln-Ser-Arg-Ser-Lys (MCA)-D-Arg (SEQ ID NO: 658)
[22] = tested on: (MCA)-His-Gln-Ser-Arg-Ser-Gly-Pro-Trp-Gly-Leu-X1-Lys (DNP)-D-Arg (SEQ ID NO: 659) where X1 is absent

Chain of MMP9 (chain, as listed by the source): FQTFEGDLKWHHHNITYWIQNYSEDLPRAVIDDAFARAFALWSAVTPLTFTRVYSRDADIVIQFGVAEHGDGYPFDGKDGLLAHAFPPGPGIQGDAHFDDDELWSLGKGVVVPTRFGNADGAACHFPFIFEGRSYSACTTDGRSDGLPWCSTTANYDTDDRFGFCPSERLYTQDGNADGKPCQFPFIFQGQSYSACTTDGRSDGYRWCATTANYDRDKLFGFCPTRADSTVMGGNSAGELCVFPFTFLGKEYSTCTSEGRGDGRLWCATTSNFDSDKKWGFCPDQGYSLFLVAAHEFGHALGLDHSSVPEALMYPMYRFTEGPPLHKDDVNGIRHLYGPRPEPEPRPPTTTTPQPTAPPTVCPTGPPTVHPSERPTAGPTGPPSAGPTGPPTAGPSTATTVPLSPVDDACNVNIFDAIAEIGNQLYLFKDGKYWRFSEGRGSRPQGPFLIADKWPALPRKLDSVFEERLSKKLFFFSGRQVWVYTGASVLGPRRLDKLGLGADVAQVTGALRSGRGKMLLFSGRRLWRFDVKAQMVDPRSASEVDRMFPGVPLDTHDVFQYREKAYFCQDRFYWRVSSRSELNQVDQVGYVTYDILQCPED

Substance: MMP9
- Probe Cleavage (pM/s) [1]: 5.9 pM/s
- Probe Cleavage (pM/s) [2]: 7430 pM/s
- Probe Cleavage (pM/s) [3]: 41.9 pM/s
- Probe Cleavage (pM/s) [4]: 7500 pM/s
- Probe Cleavage (pM/s) [5]: 6810 pM/s
- Probe Cleavage (pM/s) [6]: 86.5 pM/s
- Probe Cleavage (pM/s) [7]: 10700 pM/s
- Probe Cleavage (pM/s) [8]: 328 pM/s
- Probe Cleavage Kcat/KM [8]: 57000 M⁻¹ s⁻¹
- Probe Cleavage (pM/s) [9]: 7440 pM/s
- Probe Cleavage (pM/s) [10]: 19300 pM/s
- Probe Cleavage (pM/s) [11]: 6470 pM/s
- Probe Cleavage (pM/s) [12]: 372 pM/s
- Probe Cleavage Kcat/KM [12]: 11000 M⁻¹ s⁻¹
- Probe Cleavage (pM/s) [13]: 7380 pM/s
- Probe Cleavage (pM/s) [14]: 255 pM/s
- Probe Cleavage Kcat/KM [14]: 24000 M⁻¹ s⁻¹
- Probe Cleavage (pM/s) [15]: 436 pM/s
- Probe Cleavage (pM/s) [16]: 9600 pM/s
- Probe Cleavage (pM/s) [17]: 5410 pM/s
- Probe Cleavage (pM/s) [18]: 5150 pM/s
- Probe Cleavage Kcat/KM [18]: 120000 M⁻¹ s⁻¹
- Probe Cleavage (pM/s) [19]: 13900 pM/s
- Probe Cleavage (pM/s) [20]: 18600 pM/s
- Probe Cleavage (pM/s) [21]: 2550 pM/s
- Probe Cleavage (pM/s) [22]: 705 pM/s
